{"source": "paper PMC2760593", "about": "(Journal of biochemistry, 2008)", "binders": {"B1": {"name": "recombinant bone morphogenetic protein (BMP)-2 (ligand, UniProt P12643 283-396, looked up)", "chain": "QAKHKQRKRLKSSCKRHPLYVDFSDVGWNDWIVAPPGYHAFYCHGECPFPLADHLNSTNHAIVQTLVNSVNSKIPKACCVPTELSAISMLYLDENEKVVLKNYQDMVVEGCGCR"}}, "target": "T1, polyhistidine (His)-tagged recombinant full-length CCN2 (UniProt P29279 27-349)", "T1 sequence (looked up)": "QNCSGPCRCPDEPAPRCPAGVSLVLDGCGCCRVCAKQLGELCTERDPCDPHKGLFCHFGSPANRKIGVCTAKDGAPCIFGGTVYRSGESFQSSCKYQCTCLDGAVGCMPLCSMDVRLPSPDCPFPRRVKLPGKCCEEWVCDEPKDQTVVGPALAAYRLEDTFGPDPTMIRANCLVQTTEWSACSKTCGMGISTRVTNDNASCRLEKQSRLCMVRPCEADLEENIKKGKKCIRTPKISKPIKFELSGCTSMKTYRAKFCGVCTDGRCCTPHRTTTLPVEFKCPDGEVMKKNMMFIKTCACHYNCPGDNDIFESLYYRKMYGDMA", "experiment": "SPR", "data": [{"binder": "B1", "values": [{"measurement": "Kd", "result": 0.77, "unit": "nM"}]}]}
